# Laboratory results as given in the supplement of paper PMC12636428.
# Tested on: Saccharomyces cerevisiae
# Test: transcriptional activation domain activity (GFP:mCherry ratio, weighted mean of sorted bins, harmonized to initial dataset scale) (arbitrary fluorescence ratio units); higher = stronger transcriptional activation
# Settings: beta-estradiol 1 µM; induction time 4 h
# Outline: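 The listed activation activity is a read-weighted mean of bin median fluorescence, averaged across barcodes and linearly mapped onto the initial dataset scale. Barcoded tiles, fused to an estradiol-inducible synthetic transcription factor, were integrated at URA3 in yeast diploids bearing a GFP reporter. Cells were held 4 hours at 30 °C in SC with 1 uM beta-estradiol, sorted into 8 GFP:mCherry bins, and sequenced, and tiles with fewer than 50 reads were excluded.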
sequence,measurement,value
KPAGIMMFYFPCLYGTFLVGCLGHEINILSMAIANAKLFLLSFLMRGMLCTWN,transcriptional activation domain activity,43200
MSTAAVNEVTETLAATAISNPTNGAAANEATAASADEGRRLYIGNLAYATTEG,transcriptional activation domain activity,36000
DLARSQKFILCSIKHWGSYLFLFFSCRSFNLFFNHSYFSFCLNISFFLCSVFL,transcriptional activation domain activity,77800
MTTWHKVFFFFRNLSFFCLFCLSCFFFLLLFLMKLETTNKVSILYLSLTLILF,transcriptional activation domain activity,43700
VYPEKVIFAPFEIFVVLVSFFNLVLFLFCFPFTLYPPKRWLRIVVLLFLFFFC,transcriptional activation domain activity,50400
ERGTEEREKEREEGMRGRRGKRNRGRWKREGEEEGGEEEGRKGRKEKGRQGAE,transcriptional activation domain activity,47700
TGPTNVGLIILIIVSFFQFNFFLPVHQSFAPKLLKHHYIIYRMICSQLSYLVL,transcriptional activation domain activity,60900
TFQHLSRTTYEDFVNTKQFFARVRVLRRLYSCNKQEIWQSLIFSTLACLLDRP,transcriptional activation domain activity,60900
VPRKLTASIHHPVEGLFYGTYWVSISLILNCAHAYGVPSSGPWLVRALEVCFW,transcriptional activation domain activity,64800
IVRIVFFPTIFSFFNFFAVWFYQRSWILLPFPELYECFALVAMFYLLVVYVTP,transcriptional activation domain activity,46200
FCFYPFQKQWVMFSLTKDSLQLAHKFNFTRVPLPQRLRAVYLYARFAWRIFLL,transcriptional activation domain activity,33000
VVGGQQKFGTKMVVESDKKCRLILLPRFAETGILVLVNMRTLAVKCVKFGTRG,transcriptional activation domain activity,19300
MLCLGLVDVYVNFLIFQLYNFLFLFGFLRWINEFVFGFPIHCLFCVILYLLIL,transcriptional activation domain activity,30900
TVMVFGSDEKRVKAVGDMLKANLNVKGGGKGTRWSGKRTGVWSDSREGAAVTG,transcriptional activation domain activity,47800
MARCYRLVMCFPFSLCFEYSALILTCSFFSPFIPFRLWCHAVPCGSGVFLFLH,transcriptional activation domain activity,65700
FVLDTFLWYIIWNTDIYTRLPKRIYAKILATADMEVKYKPKVLVSQIWNAVLI,transcriptional activation domain activity,14000
VDNQFLSTRSIVTEACRKRGIYLTWIDSDPDILNYLQLSTFQFIVLLMLPLTP,transcriptional activation domain activity,42900
EEEAVVSAATDEAVKEEGRQVDAGSADAGGEAAAPRKKIRKRSKAKPTPEQKL,transcriptional activation domain activity,21200
RGDEDADGDDDEGEGSGDKTGDAEAGAAPSSGAGGGSSNSKKNKKKKNKKKGK,transcriptional activation domain activity,51900
EVEGEGEDGEEEAAPPPKKVRASGRSKKIEYKEESEEEAPAPKKTRGKKAATK,transcriptional activation domain activity,6720
RYPPKHILISQSLILILLCFHLSFVWNKEFAPFNIESRTLFICFLGYLPILLL,transcriptional activation domain activity,36900
AFGGGNTTGGGMFGNNTSKPAFGGTSNTGGALFGGGSNTNTGTAGFGTSFGGT,transcriptional activation domain activity,13900
VPVNPLALSPETGGPKKLPVARVLVDDEEDEEAKKLSTKPRLVIVGGGWGAVG,transcriptional activation domain activity,41900
VVFVLIIFSLSILPSAPLVKTGALVVLASLLLMPITQQFFLPSLPIWTYLLYF,transcriptional activation domain activity,47500
KGGEYHRRKGDETSSQGQMGKKVKSEKGEEEKERRKKKERVKQHVVNVRVAEQ,transcriptional activation domain activity,41900
QLQCIPIFGNFVVLILCLKYIYSCNHFGSVTSHHTFHMLAVVLSTFFISLIPV,transcriptional activation domain activity,43100
MPFYMPSKGLAIKDFVGQIALIIKVYVNPITLVSISYHYYMFFLSLNCLWLFL,transcriptional activation domain activity,65100
GKRNSGAGGASAKAKARGAGKKPAAAGGKAGKKNVRAAKSKGKAAGARTKPAA,transcriptional activation domain activity,43900
KVSFLFGVWFFFSFEVLGFFDFFPSFLSFRRIFFIIFILYFIIYLYVVFFVSF,transcriptional activation domain activity,73700
VRRVLLMVPDWFIIFGYRWYRALGLLKTVCPWWTSIINSSSVFYSMLWVDPSV,transcriptional activation domain activity,90900
VLMLIVSNLRLMIENFKKYGVLICLSCHDYRRQDVIYGSILYLLVPCHLFVAY,transcriptional activation domain activity,41900
TRYCWGFINLWYSSLYLSGSIILNLAAFFLLPVHLFVSLMQTHLLQWELLLAF,transcriptional activation domain activity,59500
WKATKYLIGLWIQCFRDRGLIGPVGYRGHVHCVVRFCLCLIPKSHWQTIIVVT,transcriptional activation domain activity,63500
DNESDAEPQQEKSKSQSRRRQSRGRGRRGADSGAESDARSDVSQSGGRRNRQR,transcriptional activation domain activity,44200
PIHAVYLFHLISSTFLLKYIYTYRFYFIFFLPFFLIWILCAAYWWLFFTHHIP,transcriptional activation domain activity,54600
LLVLLVFVADTLHMMGTTQFYWSMLVLCRRSDAAMCEAGLSWGSSISFPMNYV,transcriptional activation domain activity,42600
NNPDAKKARACESCRQLKVKCEPDADNPDGPCRRCAKAGRACVVTQPTRKRQK,transcriptional activation domain activity,38000
TPFLFYRPLPPQYFCKFLLYYGGLVWWVLYSGFFFYFILGRGYRKIFLSYFCL,transcriptional activation domain activity,53100
EARNIVGIKNIDLYKGPLFVFWAPMNPSHVGWNGGMHLYAWRCKLLSNLPYHF,transcriptional activation domain activity,25600
SSHCLLENDMFVFFANCSVNQLAMGEDMHHILRLCYSAELIKVLLTYLGRSTF,transcriptional activation domain activity,56400
KVISLLYSNRESSYLEDTCPTENDYSDLLKGYINEIEKTLPPKAIIEQYLSHF,transcriptional activation domain activity,51100
AAAPAAANDGFHEVHHNRGGRGRGGHQGEGRGGYRGRGGPRGEFRGRGRGRGR,transcriptional activation domain activity,42000
LLFLLAHWHALAKLRMHTDSTLTLLDCATKSLGAALRDFQTKVCPAFNTHELR,transcriptional activation domain activity,51400
TATARVRAVGENQKLEIVLGESDGTEEECQCGRRNKNANVKKYVQGVRAGIHY,transcriptional activation domain activity,35000
MKPITPKLEEQEPAAYGAAASAATVPTTKRKCVSSACVPCRRRKSKVTPRNPL,transcriptional activation domain activity,34500
TPECLTKINWNVLRLSSYLSSVATSHFLELSTIIGITLIQLIWLLHPPCLLFL,transcriptional activation domain activity,45400
LVYNDCMYIIFHLHMFEYRYGKQLAKTLLYWTYAHTHFCQLVQVESALRQVIQ,transcriptional activation domain activity,48100
VRVLGHDTLYFLTLYLLKAELFFVFFFFLFFRYMLEKRTVIKFTFFFYPCLFE,transcriptional activation domain activity,54700
MLLSLYLLTPFFIDMLLALHPFTLLCVHLPTCPCILLSCFRSYPCLSLWFPFS,transcriptional activation domain activity,45900
SNKRNKDENRGRSRTRSASRGRSRSASVFSDARSRSRARSRSRAATMAKAGAA,transcriptional activation domain activity,36300
RGKQPYRWTIWIYLGTRYSCLLMFITFFILNHAGHALCKPLILMNYVFNIVSW,transcriptional activation domain activity,41700
GYIGLSSGYFWSGLLYNVSITISLYCLAMFWVCLHDDLVPFRPVPKFLVIKLV,transcriptional activation domain activity,53000
CLLICIEYLTLSSLLDINVLLTTIVLHSLSLSSNLEVVRVVRRFFWVRCINLL,transcriptional activation domain activity,47200
MMAPSCSICLPLVLPPLLCQIFSPLILSLFPYPLHCLCMLFFQLIYMPLFFFF,transcriptional activation domain activity,68200
VCQPLSPPVTGVLLVSFLPLFSRAFLAFLLSTLWLFSPLSDHILYYFCFYLAL,transcriptional activation domain activity,35200
LLISDSQLGSYLLIGFVLENFICLFGLLVHSYLSLTRMDLGSFFFFAQITNRM,transcriptional activation domain activity,40700
KLRKKQHGSNKDTIPSSQSRDIANDYDRGSTDNNLVTTTSTSSIFHDEDLTFF,transcriptional activation domain activity,44400
FLSLLVLVCWVPCFVIMEVYLKSLTFNSVPYPPIHCFTPEGSHILYLCWGLIA,transcriptional activation domain activity,32200
SPDQDPHRPKVESGGEEQEQLGPPKKKRRRQALNCTECKRRKIRCDRSQPCGP,transcriptional activation domain activity,18300
MEGRVGGDQKGGGFIFVYGSGVLDWGVFFRFIYISLSFFVWGLFLCVSFAFVL,transcriptional activation domain activity,41200
MADACGSNPGGKSVKDVRAEQESKRARGALSCAECRRLKLRCDKRVPCSSCQR,transcriptional activation domain activity,25400
